# Patent US20090068174A1, “THERAPEUTIC ALKALINE PROTEASE COMPOSITIONS AND USE IN FACILITATING THE TRANSPORT OF AGENTS ACROSS THE GASTROINTESTINAL MUCOSAL LINING” (Kansas University Medical Center Research Institute, Inc., priority 2007, published 2009)
# Target: T1, mouse recombinant TNF-α (Mus musculus, UniProt P06804)
# T1 sequence (P06804 80-235 limits assumed): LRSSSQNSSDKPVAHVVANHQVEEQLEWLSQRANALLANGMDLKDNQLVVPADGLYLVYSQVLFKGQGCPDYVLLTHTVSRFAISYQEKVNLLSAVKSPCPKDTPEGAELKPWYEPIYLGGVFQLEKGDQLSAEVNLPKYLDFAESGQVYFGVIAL
# Experiment: Bioactivity of protease-treated mouse TNF-α in the C2C12 cell bioassay (nitrite)
# Type: cell-based
# Details: C2C12 cells, NO (nitrite) production
# Experimental: Effects of three purified A. oryzae proteases on the bioactivity of mouse TNF-α (A) protease powder prepared according to Example 1 (preparation); (B) alkaline protease; (C) 26 kDa protease; and (D) deuterolysin. 50 ng quantities of TNF-α were incubated at 37° C. for 24 hours with the indicated quantities of the protease powder prepared according to Example 1 or one of the three purified proteases. The reactions were then stopped by addition of FBS and samples were added to C2C12 cells that had been costimulated with mouse IFN-γ. Twenty-four hours later, nitrite was measured in culture fluids.
# The protease powder prepared according to Example 1 inactivates mouse recombinant TNF-α. 50 ng of the cytokine was treated for 24 hours with either 0 (□); 5 (∘); or 10 ng ([…]) of either Pseudomonas elastase (A) or protease powder prepared according to Example 1 (B). Then the residual bioactivity of the cytokine was measured by its ability to co-activate mouse C2C12 myoblast cells in the presence of excess IFN-γ for the production of NO (nitrite).
# The protease powder prepared according to Example 1 inactivates mouse recombinant TNF-α by limited proteolysis. […]
substance,measurement,value
Pseudomonas elastase: Pseudomonas protease used as a positive control [reference compound],Effect on bioactivity of mouse TNF-α,led to a loss of its biological activity
